# Measured values from patent US20140072613A1, “Compositions and Methods for Treating Cutaneous Scarring” (priority 2012, published 2014).
# What was measured:
# Assay in all cases: biochemical
# Assay type in all cases: biochemical
# 266 human kinases [1] = molecular target: 266 human kinases (Homo sapiens, UniProt Q13555); details: CaMKIIγ(h); 100 μM
# Outline: (§1)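 A filter-capture radiometric assay: phosphorylated cationic substrate binds an anionic membrane and is scintillation-counted, with values referenced to full-activity control.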
# 266 human kinases [2] = molecular target: T1, 266 human kinases (Homo sapiens, UniProt Q96PF2); details: TSSK2(h); 100 μM
# T1 sequence (Q96PF2 1-358): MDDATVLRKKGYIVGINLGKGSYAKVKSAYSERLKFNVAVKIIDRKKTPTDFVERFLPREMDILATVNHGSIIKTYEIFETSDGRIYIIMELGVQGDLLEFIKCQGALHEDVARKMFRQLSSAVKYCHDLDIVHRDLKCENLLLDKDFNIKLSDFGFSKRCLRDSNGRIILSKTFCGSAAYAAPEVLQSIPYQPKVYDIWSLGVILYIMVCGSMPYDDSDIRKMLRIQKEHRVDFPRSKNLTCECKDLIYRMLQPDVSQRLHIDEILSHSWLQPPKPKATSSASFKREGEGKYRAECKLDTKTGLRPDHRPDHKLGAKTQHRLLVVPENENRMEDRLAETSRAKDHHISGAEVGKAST
# Outline: as §1
# 266 human kinases [3] = molecular target: T2, 266 human kinases (Homo sapiens, UniProt Q9UL54); details: TAO2(h); 100 μM
# T2 sequence (Q9UL54 1-1235): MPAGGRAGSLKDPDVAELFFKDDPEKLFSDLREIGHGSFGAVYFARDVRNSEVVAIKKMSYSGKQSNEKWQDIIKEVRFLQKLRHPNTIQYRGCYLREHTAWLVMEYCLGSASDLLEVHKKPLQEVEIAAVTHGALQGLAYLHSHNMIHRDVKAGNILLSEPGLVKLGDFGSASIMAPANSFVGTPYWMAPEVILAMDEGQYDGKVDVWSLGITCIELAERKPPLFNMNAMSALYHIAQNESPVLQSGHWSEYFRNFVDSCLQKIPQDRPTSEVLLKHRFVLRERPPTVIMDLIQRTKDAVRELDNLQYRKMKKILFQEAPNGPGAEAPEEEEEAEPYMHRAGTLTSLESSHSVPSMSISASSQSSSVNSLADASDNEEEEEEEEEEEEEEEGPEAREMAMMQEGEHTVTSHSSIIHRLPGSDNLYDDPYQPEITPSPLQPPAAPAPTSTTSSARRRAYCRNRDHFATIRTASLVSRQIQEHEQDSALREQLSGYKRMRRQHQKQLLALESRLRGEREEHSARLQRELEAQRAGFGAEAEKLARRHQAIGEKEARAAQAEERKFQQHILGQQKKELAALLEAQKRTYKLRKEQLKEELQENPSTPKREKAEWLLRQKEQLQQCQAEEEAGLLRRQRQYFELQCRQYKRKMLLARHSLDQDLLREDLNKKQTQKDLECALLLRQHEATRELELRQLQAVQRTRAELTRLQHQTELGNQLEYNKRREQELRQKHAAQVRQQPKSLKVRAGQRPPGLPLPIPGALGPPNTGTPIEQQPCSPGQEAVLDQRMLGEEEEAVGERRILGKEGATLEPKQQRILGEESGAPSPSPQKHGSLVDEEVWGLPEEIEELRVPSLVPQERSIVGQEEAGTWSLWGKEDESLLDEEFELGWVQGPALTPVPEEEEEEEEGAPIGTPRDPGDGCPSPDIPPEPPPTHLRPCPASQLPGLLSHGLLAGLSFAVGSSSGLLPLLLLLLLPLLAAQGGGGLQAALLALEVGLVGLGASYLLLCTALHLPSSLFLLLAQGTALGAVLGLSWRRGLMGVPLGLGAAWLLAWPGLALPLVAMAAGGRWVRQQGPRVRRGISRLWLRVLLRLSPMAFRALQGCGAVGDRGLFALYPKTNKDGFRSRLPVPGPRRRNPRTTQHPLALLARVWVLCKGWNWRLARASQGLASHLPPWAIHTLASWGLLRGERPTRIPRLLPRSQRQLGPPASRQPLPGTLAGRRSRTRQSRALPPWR
# Outline: as §1
# Sequence of 266 human kinases (Homo sapiens, UniProt Q13555) (Q13555 whole entry): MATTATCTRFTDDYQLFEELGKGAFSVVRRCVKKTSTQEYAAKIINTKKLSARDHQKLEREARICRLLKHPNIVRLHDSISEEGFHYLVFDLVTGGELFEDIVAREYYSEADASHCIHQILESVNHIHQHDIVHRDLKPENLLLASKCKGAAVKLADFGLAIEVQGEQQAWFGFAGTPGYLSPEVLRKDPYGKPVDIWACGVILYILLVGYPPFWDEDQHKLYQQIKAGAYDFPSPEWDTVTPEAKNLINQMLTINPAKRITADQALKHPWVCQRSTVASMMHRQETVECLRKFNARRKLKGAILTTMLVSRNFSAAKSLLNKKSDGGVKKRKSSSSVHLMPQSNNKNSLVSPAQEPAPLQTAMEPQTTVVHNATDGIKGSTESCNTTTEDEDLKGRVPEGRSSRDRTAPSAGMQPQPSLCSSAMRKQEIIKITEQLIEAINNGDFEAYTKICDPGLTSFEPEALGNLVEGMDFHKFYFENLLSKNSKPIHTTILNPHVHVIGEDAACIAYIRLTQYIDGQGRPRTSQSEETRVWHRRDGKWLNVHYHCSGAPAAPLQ
Sequence,% activity (266 human kinases [1]) [%],% activity (266 human kinases [2]) [%],% activity (266 human kinases [3]) [%]
HRRIKAWLKKIKALARQLGVAA (mammal) [MMI-0500],3,92,15
YARAAARQARAKALNRQLGVA (mammal) [MMI-0200],94,91,93
